How the values were obtained:
CXCL8 = biological target: T1, CXCL8 (Homo sapiens, UniProt P10145); experiment: 1H-15N HSQC NMR titration ([…] sY, […]N-CXCL8); format: binding
T1 sequence (P10145 23-99): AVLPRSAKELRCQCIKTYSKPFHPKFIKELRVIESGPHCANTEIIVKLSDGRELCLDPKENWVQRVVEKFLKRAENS

CXCR2 (Homo sapiens) = CXCR2 (Homo sapiens) (UniProt P25025); conditions: cited from earlier work
CXCR1 (Homo sapiens) = CXCR1 (Homo sapiens) (UniProt P25024); conditions: cited from earlier work
CXCR1 (Homo sapiens), sequence (P25024 whole entry): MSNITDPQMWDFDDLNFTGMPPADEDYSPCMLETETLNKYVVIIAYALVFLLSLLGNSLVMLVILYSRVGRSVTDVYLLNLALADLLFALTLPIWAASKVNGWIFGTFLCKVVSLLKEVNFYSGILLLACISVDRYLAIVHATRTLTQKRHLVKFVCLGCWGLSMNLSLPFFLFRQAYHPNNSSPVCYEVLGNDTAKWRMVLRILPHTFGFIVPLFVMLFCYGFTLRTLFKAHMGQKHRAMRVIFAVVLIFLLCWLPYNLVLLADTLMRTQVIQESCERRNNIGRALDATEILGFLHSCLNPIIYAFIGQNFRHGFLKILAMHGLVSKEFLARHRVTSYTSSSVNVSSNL

CXCR2 (Homo sapiens), sequence (P25025 whole entry): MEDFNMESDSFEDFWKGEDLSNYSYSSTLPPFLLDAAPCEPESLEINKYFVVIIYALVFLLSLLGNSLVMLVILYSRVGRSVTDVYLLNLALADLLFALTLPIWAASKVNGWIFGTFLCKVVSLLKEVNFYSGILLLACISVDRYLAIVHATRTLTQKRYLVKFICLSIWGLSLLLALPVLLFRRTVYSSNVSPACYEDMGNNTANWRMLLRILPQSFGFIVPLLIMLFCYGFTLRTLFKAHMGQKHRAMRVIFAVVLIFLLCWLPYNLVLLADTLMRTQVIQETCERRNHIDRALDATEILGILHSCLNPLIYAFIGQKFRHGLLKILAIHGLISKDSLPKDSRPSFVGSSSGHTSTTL

Row | Kd (CXCL8) [µM] | Compound | Kd (CXCR2 (Homo sapiens)) [µM] | Kd (CXCR1 (Homo sapiens)) [µM]
1 | 35200 ± 1950 | N[C@@H](Cc1ccc(OS(=O)(=O)O)cc1)C(=O)O [sY, sulfotyrosine] | – | –
2 | – | CXCL5 (from UniProt P42830) | 0.011 | 0.04

Source: article PMC5618543, “Differences in Sulfotyrosine Binding amongst CXCR1 and CXCR2 Chemokine Ligands” (International Journal of Molecular Sciences, 2017)
